According to IntAct's records for PubMed 22773792:

B1: Stage VI sporulation protein D (Bacillus subtilis), P37963 (parent)
chain: MPQNHRLQFSVEESICFQKGQEVSELLSISLDPDIRVQEVNDYVSIIGSLELTGEYNIDQNKHTEEIYTDKRFVEQVRKREDGSAELTHCFPVDITIPKNKVSHLQDVFVFIDAFDYQLTDSRILTIQADLAIEGLLDDTQDKEPEIPLYEAPAAFREEELSEPPAHSVVEEPGASSAEEAVLQHEPPAEPPELFISKAGLREELETEKAESEPPESVASEPEAREDVKEEEESEELAVPETEVRAESETEESEPEPDPSEIEIQEIVKAKKETAEPAAAIADVREEADSPAETELREHVGAEESPALEAELHSETVIAKEKEETTVSPNHEYALRQEAQNEEAAQSDQADPALCQEEAEPDEALESVSEAALSIEDSRETASAVYMENDNADLHFHFNQKTSSEEASQEELPEPAYRTFLPEQEEEDSFYSAPKLLEEEEQEEESFEIEVRKTPSAEEPKEETPFQSFQLPESSETERKETDAVPRVAPAAETKEPQTKESDNSLYLTKLFTKEADEFSRMKICIVQQEDTIERLCERYEITSQQLIRMNSLALDDELKAGQILYIPQYKNSHA
partner: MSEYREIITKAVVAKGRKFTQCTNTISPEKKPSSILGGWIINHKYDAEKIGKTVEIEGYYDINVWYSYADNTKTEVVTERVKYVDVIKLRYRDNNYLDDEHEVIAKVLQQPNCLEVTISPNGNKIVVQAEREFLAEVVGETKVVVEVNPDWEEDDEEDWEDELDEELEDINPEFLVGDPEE

Variants of: B1
Conditions: with cote_bacsu cotE

Variant	effect of a mutation on the interaction
L131A	disrupting interaction

Variants of: B1
Conditions: with cote_bacsu cotE
Remark: another data set of the same source

Variant	effect of a mutation on the interaction
L131A	decreasing interaction strength
I127A	decreasing interaction strength
